According to patent US20100196390A1 (RINAT NEUROSCIENCE, published 2010):
Where a chain is given by its changes, count along the chain named. Blank lines part the entries; values can stand above or below the binder they belong to.

Assays:
[1] = target: T1, TrkB (Homo sapiens (Human), UniProt Q16620 32-430); test: koff of Fab at 37 C; T1/2=Log2/koff
How it was run: (§1)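 Monovalent Fab fragments were tested at 37° C by surface plasmon resonance on a Biacore instrument, against TrkB extracellular-domain monomer amine-coupled to the chip at low capacity. Fabs were injected low to high as a 3-fold serial dilution from 100 nM for 84 sec, with a 10 minute dissociation after the top sample. The dissociation half-life was calculated from koff, which was fitted to a Langmuir binding model in BIAevaluation. The formula used was T1/2 = Log 2/koff.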

[2] = target: T2, mouse TrkB monomer (His ECD) (mouse, UniProt P15209 32-429); test: SPR (Biacore), TrkB His ECD monomer on chip, 37 C
T2 construct: extracellular domain; amine-coupled to the chip
Protocol: (§2) TrkB monomers (H is ECD) of human, mouse, and rat were amine-coupled to the chip at levels of 2008, 1008, and 889RU respectively in an effort to give low capacity surfaces suitable for kinetic analysis. Fabs (C1, C2, A2, 4A6, and 4B12) were diluted to 100 nM (according to their labeled concentrations by NanoDrop, using 1AU=0.6 mg/mL) to give the top concentration of a 3 fold serial dilution. Samples were injected from low to high concentration as a titration series for 84 sec, allowing a 10 minute dissociation phase for the 100 nM sample. […] The full-length mouse anti-TrkB antibody 38B8-IgG was used as a (+) control to confirm that the chip was active.
(§3) The concentrations of the Fab proteins are determined by ELISA and/or SDS-PAGE electrophoresis using a Fab of known concentration (as determined by amino acid analysis) as a standard. Kinetic association rates (kₒₙ) and dissociation rates (koff) (generally measured at 25° C. or 37° C.) are obtained simultaneously by fitting the data to a 1:1 Langmuir binding model (Karlsson, R. Roos, H. Fagerstam, L. Petersson, B., 1994 Methods Enzymology 6:99-110) using the BIAevaluation program. Equilibrium dissociation constant (KD) values are calculated as koff/kₒₙ.

[3] = target: T3, human TrkB monomer (His ECD) (human, UniProt Q16620 32-430); test: SPR (Biacore), TrkB His ECD monomer on chip, 37 C
T3 construct: extracellular domain; amine-coupled to the chip
Protocol: as §2, §3

[4] = target: T4, rat TrkB monomer (His ECD) (rat, UniProt Q63604 32-429); test: SPR (Biacore), TrkB His ECD monomer on chip, 37 C
T4 construct: extracellular domain; amine-coupled to the chip
Protocol: as §2, §3

[5] = target: T3, human TrkB monomer (His ECD); test: Biacore, 37 C
How it was run: as §1

[6] = target: T2, mouse TrkB monomer (His ECD); test: SPR (Biacore), Fab over amine-coupled TrkB His ECD monomer, 25 C
Protocol: as §2, §3

[7] = target: T3, human TrkB monomer (His ECD); test: as above
Protocol: as §2, §3

[8] = target: T4, rat TrkB monomer (His ECD); test: as above
Protocol: as §2, §3

[9] = target: T1, TrkB; test: koff of Fab at 25 C; T1/2=Log2/koff
How it was run: as §1, with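 “25°” for “37°”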

[10] = target: T3, human TrkB monomer (His ECD); test: Biacore, 25 C
How it was run: as §1, with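 “25°” for “37°”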

T2 sequence (P15209 32-429): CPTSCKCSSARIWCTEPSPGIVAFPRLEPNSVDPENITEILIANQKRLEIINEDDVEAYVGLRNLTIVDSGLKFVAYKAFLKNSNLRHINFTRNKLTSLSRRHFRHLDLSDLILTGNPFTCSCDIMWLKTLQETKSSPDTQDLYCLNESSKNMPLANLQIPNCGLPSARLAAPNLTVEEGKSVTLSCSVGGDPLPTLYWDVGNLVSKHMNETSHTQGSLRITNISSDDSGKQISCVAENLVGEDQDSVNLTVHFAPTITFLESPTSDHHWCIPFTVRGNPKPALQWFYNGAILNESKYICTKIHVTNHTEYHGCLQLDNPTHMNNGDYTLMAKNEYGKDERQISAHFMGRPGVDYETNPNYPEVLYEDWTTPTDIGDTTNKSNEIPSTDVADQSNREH
T3 sequence (Q16620 32-430): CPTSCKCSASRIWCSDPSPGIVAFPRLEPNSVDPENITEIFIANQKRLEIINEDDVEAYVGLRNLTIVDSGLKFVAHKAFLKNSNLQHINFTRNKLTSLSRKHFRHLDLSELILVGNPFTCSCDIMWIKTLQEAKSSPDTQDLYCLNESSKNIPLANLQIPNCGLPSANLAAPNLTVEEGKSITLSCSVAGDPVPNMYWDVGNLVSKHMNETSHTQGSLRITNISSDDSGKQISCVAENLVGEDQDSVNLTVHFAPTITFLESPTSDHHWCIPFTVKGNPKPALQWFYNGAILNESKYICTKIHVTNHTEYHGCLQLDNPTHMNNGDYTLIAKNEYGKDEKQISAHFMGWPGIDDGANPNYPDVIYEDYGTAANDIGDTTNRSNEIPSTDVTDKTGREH
T1 sequence (Q16620 32-430 limits assumed): as the sequence (Q16620 32-430) above
T4 sequence (Q63604 32-429): as the sequence (P15209 32-429) above, with T3M, S9T, A10T, V32I, R63K, S84G, M153T, L185I, S394T counted along it

T1/2 [1]: 4.5 min
Kd [2]: 2.27 nM
koff [2]: 0.00396 s⁻¹
kon [2]: 1.75e+06 M⁻¹ s⁻¹
Kd [3]: 1.27 nM
koff [3]: 0.00255 s⁻¹
kon [3]: 2e+06 M⁻¹ s⁻¹
Kd [4]: 4 nM
koff [4]: 0.00924 s⁻¹
kon [4]: 1.41e+06 M⁻¹ s⁻¹
T1/2 [5]: 4.53 min
B1: RN1026A (Fab, V domains shown)
VH: QVQLVQSGAEVKKPGASVKVSCKASGYTFTNYDIIWVRQAPGQGLEWMGYINPYNRRREYNEKFKGRVTMTRDTSTSTVYMELSSLRSEDTAVYYCARLLKYRRFRYYAIDYWGQGTTVTVSS
VL: DIQMTQSPSSLSASVGDRVTITCRASENVYSNLAWYQQKPGKAPKLLIYAASNLQSGVPSRFSGSGSGTDFTFTISSLQPEDIATYYCQHFWGSPFTFGQGTKLEIK
notes: Fab

Kd [2]: 0.37 nM
koff [2]: 0.00066 s⁻¹
kon [2]: 1.76e+06 M⁻¹ s⁻¹
Kd [3]: 0.17 nM
koff [3]: 0.000372 s⁻¹
kon [3]: 2.14e+06 M⁻¹ s⁻¹
kon [4]: 1.36e+06 M⁻¹ s⁻¹
Kd [6]: 0.02 nM
koff [6]: 9.24e-05 s⁻¹
kon [6]: 4.35e+06 M⁻¹ s⁻¹
Kd [7]: 0.18 nM
koff [7]: 0.000705 s⁻¹
kon [7]: 3.89e+06 M⁻¹ s⁻¹
Kd [8]: 0.27 nM
koff [8]: 0.000666 s⁻¹
kon [8]: 2.45e+06 M⁻¹ s⁻¹
T1/2 [9]: 13.2 min
B2: 4A6 (Fab, V domains shown)
VH: B1 VH
VL: B1 VL with R24H, F71Y
notes: Fab

Kd [6]: 0.06 nM
koff [6]: 0.000146 s⁻¹
kon [6]: 2.38e+06 M⁻¹ s⁻¹
Kd [7]: 0.21 nM
koff [7]: 0.000532 s⁻¹
kon [7]: 2.5e+06 M⁻¹ s⁻¹
Kd [8]: 0.41 nM
koff [8]: 0.00081 s⁻¹
kon [8]: 1.99e+06 M⁻¹ s⁻¹
T1/2 [9]: 12.8 min
B3: 4B12 (Fab, V domains shown)
VH: B1 VH with R56G
VL: B1 VL with N28P, L33V, F71Y
notes: Fab

T1/2 [10]: 2.9 min
Kd [6]: 1.44 nM
koff [6]: 0.000734 s⁻¹
kon [6]: 510000 M⁻¹ s⁻¹
Kd [7]: 2.54 nM
koff [7]: 0.0014 s⁻¹
kon [7]: 552000 M⁻¹ s⁻¹
Kd [8]: 2.29 nM
koff [8]: 0.00146 s⁻¹
kon [8]: 638000 M⁻¹ s⁻¹
T1/2 [9]: 2.9 min
B4: C2 (Fab, V domains shown)
VH: B1 VH with R56D, R57G, R58T, E59K
VL: B1 VL with A25T, F71Y
notes: Fab

Kd [6]: 0.51 nM
koff [6]: 0.000636 s⁻¹
kon [6]: 1.24e+06 M⁻¹ s⁻¹
Kd [7]: 1.08 nM
koff [7]: 0.00145 s⁻¹
kon [7]: 1.34e+06 M⁻¹ s⁻¹
Kd [8]: 1.18 nM
koff [8]: 0.00152 s⁻¹
kon [8]: 1.29e+06 M⁻¹ s⁻¹
T1/2 [9]: 6 min
B5: A2 (Fab, V domains shown)
VH: B1 VH with R56D, R57G, R58T, E59K
VL: B1 VL with F71Y, G93Y, F96W
notes: Fab
